# Measured values taken from the DeepSol protein solubility set.
# Assay: soluble on expression in E. coli; label from the status in PepcDB or PDB records
row,Sequence,soluble on expression in E. coli
1,MSLILCCGEALIDMLPRQTTLGEAGFAPYAGGAVFNTAIALGRLGVPSAFFTGLSDDMMGDILRETLRASKVDFSYCATLSRPTTIAFVKLVDGHATYAFYDENTAGRMITEAELPALGADCEALHFGAISLIPEPCGSTYEALMTREHETRVISLDPNIRPGFIQNKQSHMARIRRMAAMSDIVKFSDEDLAWFGLEGDEDTLARHWLHHGAKLVVVTRGAKGAVGYSANLKVEVASERVEVVDTVGAGDTFDAGILASLKMQGLLTKAQVASLSEEQIRKALALGAKAAAVTVSRAGANPPFAHEIGLEGHHHHHH,soluble
2,MQCLQFDSINLIEHILPDVRFWLVPPSRTHHLHEHFHHISWQTEAIPQTESKPDKPWFALPQTSERQKPEHILVIGAGISGAATAHALASHGISVTVLEARKAAQAASGNRQGLLYAKISPHDTEQTELLLAGYGYTKRLLGHILPESETWGGNGIIHLNYSRTEQQRNHELGLQKHHNHLYRSITSAEAEKIAGIPLSVPYDHPSCGLYWQHGVWLNPPAFVRTLLNHPLIGLHEDTPLTDISHDGEKWIASTPNGTFTATHIIYCTGANSPYLPETNLAALPLRQIRGQTGLTPSTPFSEQLRCAVSGESYISPSWHGLHCYGASFIPNSSHTGWNEAEEASNRQALAHLNPALSESLFAANPNPQKHQGHAAIRCDSPDHLPLVGALGDIAAMRQTYTKLALDKNYRIDTPCPYLPNAYVNTAHGTRGLATAPICAAAIAAQILGLPHPFSQRLRHALHPNRTIIRAIVRRKDLTPLEHHHHHH,not soluble
3,SPYVFSFKMPQEQGQMFQYYPVYMVLPWEQPQQTVPRSPQQTRQQQYEEQIPFYAQFGYIPQLAEPAISGGQQQLAFDPQLGTAPEIAVMSTGEEIPYLQKEAINFRHDSAGVFMPSTSPKPSTTNVFTSAVDQTITPELPEEKDKTDSLREP,soluble
4,MNEFDRVRDYLTDLQDRICAAVEAIDGKARFAEDLWQRAEGGGGRTRILRDGAVFEQAGIGFSDVSGARLPPSASAHRPELAGATWRACGVSLVFHPHNPHIPTTHANVRYFRAERDGEMVAAWFGGGFDLTPFYPVDEDVMHWHRTAQALCAPFGEERYAAHKRWCDEYFFLRHRNETRGVGGLFFDDLGQDFERDFAYQRAVGDGFLDAYLPIVERRKDTPYGEAERAFQLYRRGRYVEFNLVYDRGTLFGLQSGGRAESILMSLPPQVRWEYGFQPQPGSAEARLADYLIPRDWLGLEHHHHHH,soluble
5,MTIGFLGTGKISASMVDGLMRSVFDVPSIILSPRNAKRAEHLSRNYDKVIIAENNQALLDVCDCVFLCLPNQIAEEVLRSLRFRPEQLVVSVLAMAKAAEVEEWINHKVYRAVPLPFVAECKNLTPIYPDHPFLRSLFDALGGTLVLDAEEQFNLFMTAGSLMGVYFNFIETAHKWFITQGLKKQQSADFLAMMFGNLTDEMRKIMDQDCSTSLDFALLEKEFSTKGGTNELLSHCFSHQGGRSALTTALETTLQKINAPFTY,not soluble
6,MQTVIGTTNGRPGTTYYQRGRMHRHQPGNRQQKEKKAAAGRNRNDFLTGRILPVTPDYCMEIRAGEKINLTTRENFDFLYRSALRYSALVGLRLPFRPTGKSPRMNIVKLYRAMDTILPEHVNLEEENGRLYFCLYRFHEWPEYKLFWIPLEFTERLPEKLGKIALEFIRQLARHHGIPKSTDTSYHEMAHDYLEDYRLYDEEATAGEIRRKAALARLYEKGKAHRILKRMDNPKGFLADLEGEIRKYHTKKNNERALLELLTEGTAYISYGSPSIMQYSYDWAYEKAADFRPVGLDTQIMVTWSVKDAMNDEMESYFNSDYQESYVITPVTTFHLTPDTEKPFSMDDFPERFSHWLERFTKLITNNF,not soluble
7,MDLSTIKVFEQKLELHREMPMKVVKKELHFSTKGEIDLVDITREVELFVAESGISKGQVLIFVPGATGAVVAIEHEEGLLEDFKKILKEIVPKEKPYLHNRFDDNAHSHIRATLLGPSLVFPIVDGELVRGTWQQIFFVELDTRPRKRRILLQAIGE,soluble
8,MLLLSGFRYFRAVGVALLFLSVSLATVRADVRPETWQVVVDAGSSKTRGILYRLSADAVTPVVEYNSKLPLARYAGVPDESGNLLIAPLLDTLERLANDQKYALEKKTVLVNVLGTAGMRELSAGQQGVIYEAVKKSILAKGWALGQVGTIDGRDEGIFAWVHLNFLKGLATSDNTLGIIEMGGASSQITFALRSPPMDKADVSQNARTVMWDGKTYSVISESLLGLGADAARTAMNKVRPQDQRCYPQGALIMKVPTTGAFDFTACDLVYDEAIAANYQSEIKKLDAIVASSNYTQTDFVGLSSLYYTLNFFNNDLPERGTLKSALEQSCQRYADIEERLRQDDSKDKYQPENKCANGVFVYDLLYDYLQLGDGRLTALKKVENMDIRWTDGFLLLGKQAPLEHHHHHH,not soluble
9,MSLTWYHELGIKYPLFQGGMAWASNAELVAAVSNNGALGIIGSGGRTANELRRMIRKTKTLTSQPFGVNLMLLDKNIKQLLEVICEEKISVVTTGAGSPKEIIDTIIANNIKLFPVVPNKEIALKMLNLPISGIIVEGNEAGGHVGSQNLASLLKEIAPICPLPLIAAGGIYDHHTASLANILGANGVQVGTAFLLAKECQISPIYQELICKGEENGTSLISDKNGHLTRLLNISSEYPLNKSLKAAVEKGDLINGAFMAGSSSAYLEKIEPVENIIQRIMKKEGHHHHHH,not soluble
10,MPEFIIVEGNNDLGEFFQIDGELFSDNELLENLKKWREWEVPVIIDDWCNRILNEDETEILYFPTHEDKMNYIRVEKDLEPLYHTSNKIYATISKSEWLELLN,not soluble
11,DDEFLRGKRVLVVDDNFISRKVATGKLKKMGVSEVEQCDSGKEALRLVTEGLTQREEQGSVDKLPFDYIFMDCQMPEMDGYEATREIRKVEKSYGVRTPIIAVSGHDPGSEEARETIQAGMDAFLDKSLNQLANVIREIESKR,soluble
12,MSLVSTRLNDSQCLVQFSCNRFAKILLGQTLIWVNPSNTRKWGKSKKVNPQITSMEPLELLKKYVRDEKLIKHCIATAAVMKSLARELGEDEEKWWTIGILHDIDYEQTQGDMEKHGLVGAEILLKEGVEEEIAEVVKRHNHMLFGDYEKPVEIALQAADSVSGLVIACALVKGGKITEVTPKTVKKKFKEKSFAAGCDRDRIRMIEKLGMPLEKLYEVAIRGLTEVKDELGLS,not soluble
13,MGSDKIHHHHHHMSMNISGLGNAYSGVNTNSKQYKALKEKGWLEGVIQNEAMMSPEGKMIYEIFGGRDTIVNNLMKQFDSDGDLLNANGVAGMDVTGKGTSWQKLTNVSEEYRQKMFDNVKKEFIQENGVSNGDTTKRSDIFKDYQLSVNKDKRLSGTWTLEQYEGQYRSAMYAAVKAANPNWKPGQKFDTSILDNVTRESAEATLVKNGNRLVRNSIDVSV,not soluble
14,MNITKIDWQKVNGLLPVIIQNISTREVLMLGYMNEEALTKTIKERKVTFFSRTKQRLWTKGEISGNFLNVEEMSLDCDNDTLLILVDPIGATCHTGEYSCFHQFTSPQSENKKQQFANWAWFIKLEQHLKEKKNADPSNSYTATLHAKGTKKIAQKVGEEGVETALAAVAQDKAEVISEATDLVYHLTVLLHNQDLQWYEIIAKLQERHQGIGLHPEGGNK,soluble
15,MGSDKIHHHHHHMFAITGITGQVGGVVARALLAAGKDVRAVVRSAAKGAQWKEQGCEIAVAEMSDTQALSGAFSGVDGVFILLPPNFDPSPDFAESRHLVGTLRDALKQANPPKVVCLSTIGAQAAQPNLLQQLGYMEQQLGSLPMPIAFLRAGWFIENAAWDVEPARTAGVIPSFLQPLDKPVPMVATADVGRVAASMLQQAWTGKRIVELEGPRRITPNDLANTFARLLGKDVRMETVPRDTWEALFKSQGMKNPVPRMQMLDGFNEGWIEFETPDQTIKGNVTLETVLQSLIERVG,not soluble
16,MTGTVSRRKKIAMIGSGMIGGTMGYLCVLRELADVVLFDVVTGMPEGKALDDSQATSIADTNVSVTSANQYEKIAGSDVVIITAGLTKVPGKSDKEWSRNDLLPFNAKIIREVAQGVKKYCPLAFVIVVTNPLDCMVKCFHEASGLPKNMVCGMANVLDSARFRRFIADQLEISPRDIQATVIGTHGDHMLPLARYVTVNGFPLREFIKKGKMTEAKLAEIVERTKKAGGEIVRLLGQGSAYYAPALSAITMAQAFLKDEKRVLPCSVYCQGEYGLHDMFIGLPAVIGGGGIEQVIELELTHEEQECFRKSVDDVVELNKSLAALGPG,soluble
17,ALGDTLTITLGGSGGTAKVLRKINQDGYTSEYYLPETSSSFRAKVRHTKESVKPNQVQYERHNVEFTETVYASGSTPEFVRQAYVVIRHKVGDVSATVSDLGEALSFYLNEALYGKLIGWES,soluble
